This passage reports fold of fluorescence against S. canis G361 results from article PMC10641296.

The target in the test is SCM-2 on the surface of S. canis strain IMT40096 (Streptococcus canis (endogenous in strain IMT40096)). Put plainly: flow cytometry on cells; S. canis bacteria (mid-exponential phase) incubated with FITC-labeled human fibrinogen in PBS, 30 min at 37°C, fixed; MFI normalized to SCM-1 S. canis G361; scm2 knock-out of IMT40096 as control.

With “FITC-labeled human fibrinogen (from UniProt P02671 36-866; P02675 45-491; P02679 27-453) (complex)”, the fold of fluorescence against S. canis G361 is > 3 fold of G361.
